{
  "source": "paper PMC7363131",
  "about": "“Interaction of the Streptomyces Wbl protein WhiD with the principal sigma factor σ^HrdB depends on the WhiD [4Fe-4S] cluster” (The Journal of Biological Chemistry, 2020)",
  "binders": {"B1": {"name": "Domain 4 of the S. venezuelae principal sigma factor σ^HrdB (σ^HrdB4), N-terminally His6-tagged (domain or fragment)", "chain": "PADAVSFTLLQEQLHSVLDTLSEREAGVVSMRFGLTDGQPKTLDEIGKVYGVTRERIRQIESKTMSKLRHPSRSQVLRDYLD"}},
  "molecular_target": "T1, S. venezuelae WhiD (SvWhiD), N-terminally His6-tagged, full length (S. venezuelae, [4Fe-4S] cluster bound as isolated (cluster loading ~90%); cluster-free (apo) form after exposure to O2; N-terminal methionine cleaved)",
  "T1 construct": "WhiD of Streptomyces venezuelae, Wbl family [4Fe-4S] protein; codon-optimized gene in pET28a (NdeI/HindIII); His-tagged protein 15,923 Da by LC-MS (predicted 15,924 Da without the N-terminal methionine); The holo ([4Fe-4S]) and apo (cluster-free) forms have the same polypeptide and are kept as one molecule; The assay and the 'only:' limit tell which form was tested; The preparation holds ~10% …",
  "assay": "native MS; nondenaturing ESI-MS titration; SvWhiD 3 μM with σ^HrdB4 0.75-21 μM, I151A FNR (3 μM) as internal standard, 250 mM ammonium acetate, pH 7.2; fractional saturation against free σ^HrdB4 fitted with a simple binding isotherm",
  "conditions": "both partners purified",
  "data": [
    {"binder": "B1", "values": [
      {"measurement": "Kd", "value": 740, "unit": "nM"}
    ]}
  ]
}
